# Measured values reported in the supplement of paper PMC7877785.
# ± gives the uncertainty stated by the source.
# Test: self-splicing fitness, log relative to wild type (ln ratio); higher = more splicing; Tetrahymena group I intron in knt gene, E. coli kanamycin selection, DiMSum; sequences stand for … in CUCUCU…GGAGGGAAAAGUUAUCAGGCAUGCACCUGGUAGCUAGUCUUUAAACCAAUAGAUUGCAUCGGUUUAAAAGGCAAGACCGUCAAAUUGCGGGAAAGGGGUCAACAGCCGUUCAGUACCAAGUCUCAGGGGAAACUUUGAGAUGGCCUUGCAAAGGGUAUGGUAAUAAGCUGACGGACAUGGUCCUAACCACGCAGCCAAGUCCUAAGUCAACAGAUCUUCUGUUGAUAUGGAUGCAGUUCACAGACUAAAUGUCGGUCGGGGAAGAUGUAUUCUUCUCAUAAGAUAUAGUCGGACCUCUCCUUAAUGGGAGCUAGCGGAUGAAGUGAUGCAACACUGGAGCCGCUGGGAACUAAUUUGUAUGCGAAAGUAUAUUGAUUAGUUUUGGAGUACUCGUGGUCG
# Outline: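 Library with all eight P1ex-region intron nucleotides randomised, intron inside the knt kanamycin-resistance gene on pET-22b(+), in E. coli BL21(DE3). Cells grew overnight at 37°C or 30°C on LB agar with or without 25 μg/mL kanamycin (plus 100 μg/mL carbenicillin, 50 μM IPTG, 0.2% rhamnose), in six replicate transformations. Pooled colonies were amplicon-sequenced on Illumina HiSeq 2500. DiMSum fitness is the error-weighted combination of wild-type-normalised replicate fold changes, kanamycin versus none.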
Sequence,self-splicing fitness (ln) (30 °C),self-splicing fitness (ln) (37 °C)
ACGCAGCAAUAUUACGUACU,-1.12 ± 0.077,-0.434 ± 0.088
GCUAAGCAAUAUUACGUGGC,-2.87 ± 0.23,-2.46 ± 0.41
UUGCAGCAAUAUUACGAUAG,-0.692 ± 0.079,0.225 ± 0.11
UUUAAGCAAUAUUACGUACU,-1.14 ± 0.12,-0.327 ± 0.14
CAAAAGCAAUAUUACGUCGA,-2.16 ± 0.086,-1.06 ± 0.084
UUCUAGCAAUAUUACGUAGG,-2.25 ± 0.24,-0.645 ± 0.31
ACGCAGCAAUAUUACGGGCU,-2.46 ± 0.11,-1.36 ± 0.12
UGCGAGCAAUAUUACGGCGA,-0.753 ± 0.099,-0.754 ± 0.11
GUCGAGCAAUAUUACGGCGG,,-2.67 ± 0.41
UGGUAGCAAUAUUACGUGUU,-3.24 ± 0.28,-1.82 ± 0.29
UUCCAGCAAUAUUACGUGGG,-3.68 ± 0.18,-2.56 ± 0.16
AAUCAGCAAUAUUACGAAGC,-0.428 ± 0.11,-0.998 ± 0.14
AGGUAGCAAUAUUACGAACA,-0.682 ± 0.019,-0.342 ± 0.036
GCACAGCAAUAUUACGACUC,-0.289 ± 0.067,0.76 ± 0.083
ACUGAGCAAUAUUACGGUAG,-3.12 ± 0.18,-1.03 ± 0.21
AGUAAGCAAUAUUACGGCUG,-0.953 ± 0.11,-0.941 ± 0.12
AUUAAGCAAUAUUACGCCUG,-0.765 ± 0.15,-0.543 ± 0.17
UAGCAGCAAUAUUACGUCUU,-1.07 ± 0.071,-0.289 ± 0.085
CAUUAGCAAUAUUACGGCUG,0.0732 ± 0.078,0.0962 ± 0.088
CGCAAGCAAUAUUACGAUCU,-1.61 ± 0.073,-0.39 ± 0.085
AUCGAGCAAUAUUACGAACC,-0.925 ± 0.36,-0.838 ± 0.4
UAUAAGCAAUAUUACGAGUU,-2.72 ± 0.15,-1.11 ± 0.15
UCGAAGCAAUAUUACGGGUA,-0.839 ± 0.062,-0.123 ± 0.068

Sequence,self-splicing fitness (ln) (30 °C),self-splicing fitness (ln) (37 °C)
GUAAAGCAAUAUUACGUCCA,-0.574 ± 0.088,0.0855 ± 0.12
GCGCAGCAAUAUUACGUGAC,-1.83 ± 0.095,-1.03 ± 0.087
ACUCAGCAAUAUUACGAAAC,-2.62 ± 0.092,-1.43 ± 0.11
AAGCAGCAAUAUUACGAGAG,-4.01 ± 0.29,-2.49 ± 0.25
CUCUAGCAAUAUUACGUAGC,-3.51 ± 0.37,-3.53 ± 0.46
UAAUAGCAAUAUUACGCCGA,-1.01 ± 0.29,-1.51 ± 0.44
CGCGAGCAAUAUUACGCUUC,,-1.44 ± 0.45
GCCUAGCAAUAUUACGCCGU,-1.01 ± 0.15,-0.292 ± 0.13
GGCAAGCAAUAUUACGCGUC,-3.66 ± 0.34,-2.74 ± 0.36
UUAAAGCAAUAUUACGAUUU,-0.89 ± 0.063,0.0458 ± 0.099
AGACAGCAAUAUUACGGACC,-0.551 ± 0.075,-0.201 ± 0.086
UAAUAGCAAUAUUACGUUGU,-3.53 ± 0.18,-1.98 ± 0.19
ACCCAGCAAUAUUACGCCCU,-0.0641 ± 0.052,0.262 ± 0.091
AGCUAGCAAUAUUACGAUGA,-2.51 ± 0.21,-2.54 ± 0.15
CCCGAGCAAUAUUACGCUAU,-4.39 ± 0.34,-2.49 ± 0.2
AUAUAGCAAUAUUACGGGCG,-1.47 ± 0.17,-0.59 ± 0.15
GGGCAGCAAUAUUACGGCGG,-1.76 ± 0.12,-1.99 ± 0.17
UGCCAGCAAUAUUACGUUAU,-3.98 ± 0.2,-0.982 ± 0.12
UACUAGCAAUAUUACGCCAA,0.284 ± 0.44,-1.02 ± 0.25
UGGUAGCAAUAUUACGGAAC,,-0.88 ± 0.24
CGAAAGCAAUAUUACGAUCC,-1.03 ± 0.16,-0.798 ± 0.17
CGAAAGCAAUAUUACGAUAG,-0.598 ± 0.074,0.569 ± 0.1
GCGAAGCAAUAUUACGAGGU,-2.98 ± 0.2,-2.76 ± 0.33

Sequence,self-splicing fitness (ln) (30 °C),self-splicing fitness (ln) (37 °C)
CCAUAGCAAUAUUACGUAGA,-3.86 ± 0.17,-2.53 ± 0.16
GCCGAGCAAUAUUACGAUUA,-1.44 ± 0.13,-1.39 ± 0.15
CGCCAGCAAUAUUACGCAGC,-2.96 ± 0.34,-2.4 ± 0.38
UUGAAGCAAUAUUACGCGCA,0.548 ± 0.12,0.381 ± 0.12
UUCAAGCAAUAUUACGAUAA,-0.317 ± 0.048,0.226 ± 0.059
UGAUAGCAAUAUUACGGGUA,-1.74 ± 0.12,-1.81 ± 0.14
GGCAAGCAAUAUUACGAUGA,-1.07 ± 0.11,-0.765 ± 0.13
AACAAGCAAUAUUACGGGCU,-1.82 ± 0.073,-1.15 ± 0.099
GGUGAGCAAUAUUACGUACG,-0.28 ± 0.23,-0.434 ± 0.25
CAAUAGCAAUAUUACGCAUG,-1.35 ± 0.091,-0.845 ± 0.11
AAAAAGCAAUAUUACGAUCA,-0.00996 ± 0.084,-0.0134 ± 0.094
GGCGAGCAAUAUUACGACGG,-3.28 ± 0.38,-3.37 ± 0.47
GAACAGCAAUAUUACGAGAA,-3.45 ± 0.25,-1.44 ± 0.17
UCCUAGCAAUAUUACGUAGG,-3.58 ± 0.19,-2.21 ± 0.26
CUGAAGCAAUAUUACGCCGU,-2.92 ± 0.31,-2.4 ± 0.3
UAACAGCAAUAUUACGUAUC,-3.56 ± 0.19,-2.43 ± 0.15
AGUCAGCAAUAUUACGGCGC,-0.611 ± 0.13,-0.0744 ± 0.18
GUACAGCAAUAUUACGGGGA,-3.21 ± 0.25,-2.33 ± 0.19
CCGCAGCAAUAUUACGUUCU,-3.87 ± 0.19,-3.16 ± 0.26
UGAGAGCAAUAUUACGUUCA,-0.924 ± 0.12,-0.794 ± 0.12
GAGUAGCAAUAUUACGUUGA,-2.27 ± 0.27,-2.76 ± 0.36
UUUCAGCAAUAUUACGAAAG,-3.23 ± 0.24,-1.87 ± 0.22
